Our source for the Kd and higher βGal activation than with CFH-Y values is paper PMC3696004.

Usually Kd stands for the equilibrium constant for the complex coming apart. Read a high Kd as a looser complex.

In test [1] the target is HAFib3 (Fib3 prey fragment with an N-terminal hemagglutinin tag) (human) (UniProt Q12805). Kind of test: ELISA; HAFib3 (250 ng/ml) captured on plate-bound anti-HA antibody; a range of concentrations of CFH678 (H or Y) in PBS, overnight at 4°C; detected with goat anti-CFH and HRP secondary antibody at 450 nm; background without HAFib3 subtracted, 8 replicates; one-site specific binding fit (GraphPad Prism). (In an ELISA, binding on a coated surface is turned into a signal by an enzyme label.)

Test [2] concerns the target CFH SCR7 bait, 402H variant (human). Kind of test: two-hybrid; quantitative βGal assay in selective liquid culture with CPRG substrate, Miller Units; five independent yeast clones for each bait.

Chain of CFH SCR7 bait, 402H variant (human) (P08603 19-1231, change not shown): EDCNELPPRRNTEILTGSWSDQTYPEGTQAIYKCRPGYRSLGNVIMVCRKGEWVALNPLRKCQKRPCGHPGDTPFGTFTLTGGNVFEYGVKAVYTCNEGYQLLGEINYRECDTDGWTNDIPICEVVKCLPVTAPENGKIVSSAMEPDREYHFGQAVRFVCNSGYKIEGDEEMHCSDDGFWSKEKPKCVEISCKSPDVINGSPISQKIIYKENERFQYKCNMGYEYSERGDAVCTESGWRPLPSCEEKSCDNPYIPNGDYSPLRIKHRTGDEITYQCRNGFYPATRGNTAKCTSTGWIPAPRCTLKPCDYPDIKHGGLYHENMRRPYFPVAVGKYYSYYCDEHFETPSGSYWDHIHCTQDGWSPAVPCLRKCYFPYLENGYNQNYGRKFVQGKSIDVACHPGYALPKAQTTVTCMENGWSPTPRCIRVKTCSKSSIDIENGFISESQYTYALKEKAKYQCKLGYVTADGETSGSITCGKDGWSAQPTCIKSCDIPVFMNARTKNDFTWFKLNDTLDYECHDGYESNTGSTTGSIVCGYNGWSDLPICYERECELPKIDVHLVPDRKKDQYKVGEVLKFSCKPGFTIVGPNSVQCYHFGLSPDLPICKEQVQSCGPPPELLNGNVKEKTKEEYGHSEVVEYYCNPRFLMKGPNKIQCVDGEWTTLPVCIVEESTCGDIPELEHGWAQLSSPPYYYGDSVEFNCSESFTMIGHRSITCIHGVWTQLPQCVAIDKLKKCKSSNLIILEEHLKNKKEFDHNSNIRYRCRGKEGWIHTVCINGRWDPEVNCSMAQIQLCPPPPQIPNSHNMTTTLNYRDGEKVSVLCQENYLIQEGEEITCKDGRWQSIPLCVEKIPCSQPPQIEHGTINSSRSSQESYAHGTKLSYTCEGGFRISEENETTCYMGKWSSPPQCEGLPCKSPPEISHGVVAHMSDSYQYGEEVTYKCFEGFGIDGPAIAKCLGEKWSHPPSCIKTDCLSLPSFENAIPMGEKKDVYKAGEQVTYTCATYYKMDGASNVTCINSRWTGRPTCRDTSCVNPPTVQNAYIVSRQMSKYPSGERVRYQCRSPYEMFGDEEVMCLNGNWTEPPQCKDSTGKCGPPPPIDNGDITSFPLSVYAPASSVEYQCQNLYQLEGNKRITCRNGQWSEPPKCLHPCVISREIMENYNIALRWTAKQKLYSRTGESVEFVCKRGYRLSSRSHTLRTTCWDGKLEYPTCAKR

In test [1], “Recombinant CFH domains 6-8, 402H variant (CFH678-H) (domain or fragment)” returned a Kd of 134 nM.
Still for that read-out and setting: as for “Recombinant CFH domains 6-8, 402Y variant (CFH678-Y) (domain or fragment)”, the figure is 197 nM.

B1: Fib3 prey fusion protein from the Y2H screen (EFEMP1/Fibulin 3 residues 289-493) (domain or fragment)
chain: RLNCEDIDECRTSSYLCQYQCVNEPGKFSCMCPQGYQVVRSRTCQDINECETTNECREDEMCWNYHGGFRCYPRNPCQDPYILTPENRCVCPVSNAMCRELPQSIVYKYMSIRSDRSVPSDIFQIQATTIYANTINTFRIKSGNENGEFYLRQTSPVSAMLVLVKSLSGPREHIVDLEMLTVSSIGTFRTSSVLRLTIIVGPFSF
Molecule B1 returned a higher βGal activation than with CFH-Y in test [2] of 60%.
